Our source for the EC50, IC50, inhibition of IL-8 secretion, HT-29 + EL4-NC-LIGHT cells and % of WT binding values is patent US20210284747A1.

A word on the EC50: it is the concentration at which the effect is half-maximal. The low end stands for an effect from little substance, the high end for a need for much substance.

Assay [1] concerns the target Human LIGHT stably expressed on EL4 cells (EL4-LIGHT) (human) (UniProt O43557). Kind of assay: flow cytometry, EL4-LIGHT cells.
Assay [2] addresses LIGHT without residues 81-84, stably expressed on EL4 cells (EL4-NC-LIGHT). Put plainly: cell-based or functional assay.
The target of assay [3] is Wild type full length LIGHT on HEK293FF cells (alanine scanning control) (UniProt O43557). Put plainly: flow cytometry, HEK293FF, mAb at EC50. A general note: In flow cytometry, cells or beads pass a laser one at a time.

Residue numbers refer to the chain shown, from its start.

Chain of Human LIGHT stably expressed on EL4 cells (EL4-LIGHT) (human) (O43557 whole entry, the tested form may be a part): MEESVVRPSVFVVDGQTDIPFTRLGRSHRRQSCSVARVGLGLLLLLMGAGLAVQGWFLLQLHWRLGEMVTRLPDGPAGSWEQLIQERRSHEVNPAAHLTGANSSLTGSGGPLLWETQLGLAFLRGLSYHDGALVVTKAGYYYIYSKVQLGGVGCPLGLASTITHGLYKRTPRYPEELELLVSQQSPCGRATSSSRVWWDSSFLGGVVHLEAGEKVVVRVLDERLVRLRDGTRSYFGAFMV

B1: 3B04_var13 (antibody, V domains shown)
VH: QVQLVQSGAEVKKPGASVKVSCKASGYTFTDYEMHWVRQAPGQGLEWIGEIDPETGDTAYSQKFKGRATLTADKSTSTAYMEFSSLRSEDTAVYYCSRETDYFFDYWGQGTLVTVSS
VL: DIQMTQSPSSLSASVGDRVTITCRASENIYGALNWYQQKPGKAPKLLIYGATNLAEGVPSRFSGSGSGRDYTLTISSLQPEDFATYYCQNVLTTPWTFGQGTKLEIKR
Molecule B1 showed a half-maximal effective concentration (EC50) in assay [1] of 0.32 nM. Besides, the IC50, inhibition of IL-8 secretion, HT-29 + EL4-NC-LIGHT cells in assay [2] was determined as 0.04 nM.

B2: 3B04_var16 (antibody, V domains shown)
VH: B1 VH with I48M, S61A, K65Q, A68V, F83L
VL: B1 VL
B2 registered an EC50 in assay [1] of 0.24 nM. Besides, in assay [2], the IC50, inhibition of IL-8 secretion, HT-29 + EL4-NC-LIGHT cells was 0.1 nM.

B3: 3D12_var13 (antibody, V domains shown)
VH: B1 VH with G26D, Y32S, M34I, D57G, S61N, F83L
VL: B1 VL with F83V, T93S
For B3, in assay [1], the half-maximal effective concentration (EC50) worked out at 0.24 nM. In assay [2], the IC50, inhibition of IL-8 secretion, HT-29 + EL4-NC-LIGHT cells came out at 0.45 nM.

B4: 3D12_var15 (antibody, V domains shown)
VH: B1 VH with G26D, Y32S, M34I, I48M, D57G, S61A, K65Q, A68V, F83L
VL: B1 VL with F83V, T93S
With B4, the 50% effective concentration (EC50) in assay [1] was 0.22 nM. In addition, in assay [2], the IC50, inhibition of IL-8 secretion, HT-29 + EL4-NC-LIGHT cells was found to be 0.38 nM.

B5: 3D12_var14 (antibody, V domains shown)
VH: B1 VH with G26D, Y32S, M34I, D57G, S61N, K65Q, A68V, F83L
VL: B1 VL with F83V, T93S
B5: in assay [1], the concentration giving a half-maximal response (EC50) worked out at 0.23 nM. The IC50, inhibition of IL-8 secretion, HT-29 + EL4-NC-LIGHT cells in assay [2] stood at 0.45 nM.

B6: 3B04_var14 (antibody, V domains shown)
VH: B1 VH with K65Q, A68V
VL: B1 VL
In turn, B6 yielded a half-maximal effective concentration (EC50) in assay [1] of 0.3 nM. Besides, the IC50, inhibition of IL-8 secretion, HT-29 + EL4-NC-LIGHT cells in assay [2] was 0.05 nM.

B7: 3D12_var16 (antibody, V domains shown)
VH: B1 VH with Y32S, I48M, D57G, S61A, K65Q, A68V, F83L
VL: B1 VL with F83V, T93S
Molecule B7 yielded an EC50 in assay [1] of 0.26 nM. The IC50, inhibition of IL-8 secretion, HT-29 + EL4-NC-LIGHT cells in assay [2] turned out to be 0.52 nM.

B8: 3B04 chimeric IgG4 mAb (antibody, V domains shown)
VH: QVQLQQPGAELVRPGASVTLSCKASGYTFTDYEMHWVKQTPVHGLEWIGEIDPETGDTAYSQKFKGKATLTADKSSSTAYMEFRSLTSEDSAVYYCSRETDYFFDYWGQGTTLTVSS
VL: DIQMTQTPASLSASVGETVTITCGASENIYGALNWYQRKQGKSPQLLIYGATNLADGMSSRFSGSGSGRQYSLKISSLHPDDFATYYCQNVLTTPWTFGGGTKLEIK
Turning to B8, in assay [3], the % of WT binding turned out to be 100%.

B9: 3C10 chimeric IgG4 mAb (antibody, V domains shown)
VH: B8 VH with Q1E, P7S, G26D, Y32S, M34I, D57G, S61N, F83L
VL: DVVMTQTPAIMSASPGEKVTMTCSASSSVSYMYWYQQKPGSSPRLLIYDTSNLASGVPVRFSGSGSGTSYSLTISRMEAEDAATYYCQQWSSYPLTFGAGTKLELK
For B9, the % of WT binding in assay [3] worked out at 100%.

B10: 3D12 chimeric IgG4 mAb (antibody, V domains shown)
VH: B8 VH with G26D, Y32S, M34I, D57G, S61N, F83L
VL: B8 VL with T7S, F83V, T93S
B10 displayed a % of WT binding in assay [3] of 100%.

B11: 3A07 chimeric IgG4 mAb (antibody, V domains shown)
VH: B8 VH with P7S, S17P, G26D, Y32S, M34I, D57G, S61N, F83L
VL: B9 VL with D1E, V2N, M4L, T7S, K38R, A99S, L105I
Regarding B11, in assay [3], the % of WT binding amounted to 100%.

B12: 2E08 chimeric IgG4 mAb (antibody, V domains shown)
VH: QVQMKESGAELVRPGVSVKISCKGSGYTFTDYAIHWVKQSHAKTLEWIGVISTYYGDASYNQKFKGKATMTVDKSSSTAYMELARLTSDDSAIYYCARSRGEYGNYDAMDYWGQGTSVTVSS
VL: DIVLTQSPASLAVSLGQRATISCKASQSVDYDGDSYMNWYQQKPGQPPKLLIYAASNLESGIPARFSGSGSGTDFTLNIHPVEEEDAATYYCQQSNEDPLTFGAGTKLELK
As for B12, the % of WT binding in assay [3] was found to be 100%.

B13: 2B11 chimeric IgG4 mAb (antibody, V domains shown)
VH: B12 VH with Q1E, M4L, K5V, T44S, D89E
VL: DIVLTQSPASLAVSLGQRATISCRASESVDSYGNSFMHWYQQKPGQPPKLLIYRASNLESGIPARFSGSGSRTDFTLTINPVEADDVATYYCQQSNEDPYTFGGGTKLEIK
As for B13, in assay [3], the % of WT binding came to 100%.
